Measured values as given in patent US5777073.
Like-named read-outs stand apart in the source and are kept apart here. One block for each substance: values may come before it.

Legend:
[1] = target: CRF receptors on rat anterior pituitary cells (rat)
[2] = target: CRF receptors on rat anterior pituitary cells (rat); remark: listed apart in the source
[3] = target: CRF receptors on rat anterior pituitary cells (rat); remark: listed apart in the source
[4] = target: CRF receptors on rat anterior pituitary cells (rat); remark: listed apart in the source
[5] = target: CRF receptors on rat anterior pituitary cells (rat); remark: listed apart in the source
[6] = target: CRF receptors on rat anterior pituitary cells (rat); remark: listed apart in the source
[7] = target: CRF receptors on rat anterior pituitary cells (rat); remark: listed apart in the source
[8] = target: CRF receptors on rat anterior pituitary cells (rat); remark: listed apart in the source
[9] = target: CRF receptors on rat anterior pituitary cells (rat); remark: listed apart in the source
[10] = target: CRF receptors on rat anterior pituitary cells (rat); remark: listed apart in the source
[11] = target: CRF receptors on rat anterior pituitary cells (rat); remark: listed apart in the source
[12] = target: CRF receptors on rat anterior pituitary cells (rat); remark: listed apart in the source
[13] = target: CRF receptors on rat anterior pituitary cells (rat); remark: listed apart in the source
[14] = target: CRF receptors on rat anterior pituitary cells (rat); remark: listed apart in the source
[15] = target: CRF receptors on rat anterior pituitary cells (rat); remark: listed apart in the source
[16] = target: CRF receptors on rat anterior pituitary cells (rat); remark: listed apart in the source
[17] = target: CRF receptors on rat anterior pituitary cells (rat); remark: listed apart in the source
[18] = target: CRF receptors on rat anterior pituitary cells (rat); remark: listed apart in the source
[19] = target: CRF receptors on rat anterior pituitary cells (rat); remark: listed apart in the source
[20] = target: CRF receptors on rat anterior pituitary cells (rat); remark: listed apart in the source
[21] = target: CRF receptors on rat anterior pituitary cells (rat); remark: listed apart in the source
[22] = target: CRF receptors on rat anterior pituitary cells (rat); remark: listed apart in the source

in vitro biopotency: inhibition of ACTH secretion (times Peptide IV) [1]: 1.11
Substance: (cyclo 30-33) Ac-Thr^11, D-Phe^12, CML^15,27, Nle^21,38, Glu^30, D-His^32, Lys^33 -r/hCRF(11-41) (peptide)

in vitro biopotency: inhibition of ACTH secretion (times the Standard) [2]: 23.5
Substance: (cyclo 30-33) D-Phe^12, CML^15, Nle^21,38, Glu^30, imBzlD-His^32, Lys^33 !-r/hCRF (12-41) (peptide)

in vitro biopotency: inhibition of ACTH secretion (times the Standard) [3]: 43
Substance: (cyclo 30-33) Ac-D-Phe^12, Nle^21,38, CML^27, Glu^30, D-His^32, Lys^33 !-r/hCRF(12-41) (peptide)

in vitro biopotency: inhibition of ACTH secretion (times the Standard) [4]: 33.8
Substance: (cyclo 30-33) D-Phe^12, Nle^21,38, Glu^30, Lys^33 !-r/hCRF(9-41) (peptide)

in vitro biopotency: inhibition of ACTH secretion (times the Standard) [5]: 7.15
Substance: (cyclo 29-33) D-Phe^12, Nle^21,38, Glu^29, Lys^33 -r/hCRF(12-41) (peptide)

in vitro biopotency: inhibition of ACTH secretion (times the Standard) [6]: 15
Substance: (cyclo 30-33) D-Phe^12, CML^14, Nle^21,38, Glu^30, D-His^32, Lys^33 !-r/hCRF(12-41) (peptide)

in vitro biopotency: inhibition of ACTH secretion (times the Standard) [7]: 15
Substance: (cyclo 29-32) D-Leu^11, Nle^17, Glu^29, D-Ala^31, Lys^32 !-Sauvagine (11-40) (peptide)

in vitro biopotency: inhibition of ACTH secretion (times the Standard) [8]: 16
Substance: (cyclo 30-33) D-Phe^12, Nle^21,38, Glu^30, D-His^32, Lys^33, CML^37 !-r/hCRF(12-41) (peptide)

in vitro biopotency: inhibition of ACTH secretion (times the Standard) [9]: 36.5
Substance: (cyclo 30-33) Ac-D-Phe^12, Nle^21,38, Glu^30, Lys^33 !-r/hCRF(12-41) (peptide)

in vitro biopotency: inhibition of ACTH secretion (times the Standard) [9]: 64
Substance: (cyclo 30-33) Ac-Thr^11, D-Phe^12, Nle^21,38, Glu^30, Lys^33 !-r/hCRF(11-41) (peptide)

in vitro biopotency: inhibition of ACTH secretion (times the Standard) [10]: 31.6
Substance: (cyclo 30-33) D-Phe^12, Nle^21,38, Glu^30, Lys^33 !-r/hCRF(10-41) (peptide)

in vitro biopotency: inhibition of ACTH secretion (times Peptide IV) [11]: 0.831
Substance: (cyclo 30-33) D-Phe^12, Nle^18,21, Glu^30, D-Ala^32, Lys^33 !-Carp Urotensin I (12-41) (peptide)

in vitro biopotency: inhibition of ACTH secretion (times Peptide IV) [12]: 1.26
Substance: (cyclo 30-33) D-Phe^12, Nle^21,38, CML^27, Glu^30, D-His^32, Lys^33 !-r/hCRF(11-41) (peptide)

intrinsic CRF activity [13]: < 3%
in vitro biopotency: inhibition of ACTH secretion (times the Standard) [14]: 33
Substance: (cyclo 30-33) D-Phe^12, Nle^21,38, Glu^30, Lys^33 !-r/hCRF(12-41) (peptide)

in vitro biopotency: inhibition of ACTH secretion (times the Standard) [15]: 1.4
Substance: (cyclo 30-33) Ac-Asp^9, D-Phe^12, Nle^21, CML^27,37, Glu^30, Lys^33 -r/hCRF(9-41) (peptide)

in vitro biopotency: inhibition of ACTH secretion (times the Standard) [16]: 8.61
Substance: (bicyclo 20-23, 30-33) D-Phe^12, Nle^21,38, D-Ala^22, LyS^23,33, Glu^30, D-His^32 !-r/hCRF(12-41) (peptide)

in vitro biopotency: inhibition of ACTH secretion (times the Standard) [17]: 49
Substance: (cyclo 30-33) D-Tyr^12, Glu^13, Lys^17,33, Nle^21,38, Glu^30, Asn^32, Arg^36 !-r/hCRF(12-41) (peptide)

in vitro biopotency: inhibition of ACTH secretion (times the Standard) [9]: 34
Substance: (cyclo 30-33) Ac-Leu^10, D-Phe^12, Nle^21,38, Glu^30, Lys^33 !-r/hCRF(10-41) (peptide)

in vitro biopotency: inhibition of ACTH secretion (times the Standard) [18]: 79
Substance: (cyclo 30-33) D-Tyr^12, Nle^21,38, Glu^30, Asn^32, Lys^33, Arg^36 !-r/hCRF (12-41) (peptide)

in vitro biopotency: inhibition of ACTH secretion (times Peptide IV) [19]: 1.65
Substance: (cyclo 30-33) Ac-D-Phe^12, Nle^21,38, CML^27, Glu^30, Lys^33 !-r/hCRF(12-41) (peptide)

in vitro biopotency: inhibition of ACTH secretion (times Peptide IV) [20]: 1.4
Substance: (cyclo 30-33) Ac-Thr^11, D-Phe^12, Nle^21,38, CML^27, Glu^30, D-His^32, Lys^33 !-r/hCRF(11-41) (peptide)

in vitro biopotency: inhibition of ACTH secretion (times the Standard) [21]: 40.3
Substance: (cyclo 30-33) D-Phe^12, Nle^21,38, Glu^30, Lys^33 !-r/hCRF(11-41) (peptide)

in vitro biopotency: inhibition of ACTH secretion (times the Standard) [22]: 80.3
Substance: (cyclo 30-33) D-Phe^12, Nle^21,38, Glu^30, D-His^32, Lys^33 !-r/hCRF(12-41) (peptide)
